Measured values: US20250345387A1, “CORONAVIRUS THERAPEUTICS AND TREATMENT METHODS” (priority 2020, published 2025)
Where no end group is shown, it is not given here. Side-chain parts run from the residue outwards. 4‑arm PEG 10 kDa = 10 kDa 4-armed polyethylene glycol

B1: parental Vasculotide (peptide)
peptide: C([maleimide-4‑arm PEG 10 kDa])HHHRHSF
modifications: also: tetramer: four copies on 4-armed 10 kDa PEG, mixture of succinimide and thiazine ring products
notes: Manufactured by Bachem; also called VT; parental VT
B2: MPA-Br (peptide)
peptide: HHHRHSF-OH
modifications: not fully specified (N-terminus); also: tetramer: four copies on (bromoacetimide)4-PEG10K
notes: Mpa is not an amino acid; also called mBr; AV-001

Columns and labels:
[1] = target: T1, recombinant mouse Tie2Fc (mouse, UniProt Q02858 23-743); assay: tryptophan fluorescence spectroscopy
T1 chain: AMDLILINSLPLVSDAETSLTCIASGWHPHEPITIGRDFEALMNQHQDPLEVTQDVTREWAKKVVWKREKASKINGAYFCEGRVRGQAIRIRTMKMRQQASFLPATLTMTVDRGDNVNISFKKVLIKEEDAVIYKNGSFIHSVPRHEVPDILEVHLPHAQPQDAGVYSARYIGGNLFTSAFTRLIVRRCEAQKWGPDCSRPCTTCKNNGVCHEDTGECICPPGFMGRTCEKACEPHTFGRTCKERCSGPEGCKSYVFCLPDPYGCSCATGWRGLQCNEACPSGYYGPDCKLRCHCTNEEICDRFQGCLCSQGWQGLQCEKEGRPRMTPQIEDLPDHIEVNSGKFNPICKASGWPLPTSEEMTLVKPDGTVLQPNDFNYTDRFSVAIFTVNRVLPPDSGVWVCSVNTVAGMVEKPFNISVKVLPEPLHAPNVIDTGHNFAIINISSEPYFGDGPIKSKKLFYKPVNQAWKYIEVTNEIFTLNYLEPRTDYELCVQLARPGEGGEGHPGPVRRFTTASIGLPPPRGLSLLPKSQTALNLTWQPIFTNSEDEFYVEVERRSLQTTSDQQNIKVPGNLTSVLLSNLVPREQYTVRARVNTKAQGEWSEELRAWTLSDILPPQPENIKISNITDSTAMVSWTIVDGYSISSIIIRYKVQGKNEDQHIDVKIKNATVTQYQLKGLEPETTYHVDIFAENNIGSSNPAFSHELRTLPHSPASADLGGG

[2] = target: human Tie2 receptor on human endothelial cells (HUVEC, HMVECtert) (human, UniProt Q02763 23-1124); assay: cell-based or functional assay
[3] = target: T2, recombinant cynomolgus monkey Tie2-FC (Macaca fascicularis, UniProt G7PS68 23-748); assay: tryptophan fluorescence spectroscopy
T2 chain: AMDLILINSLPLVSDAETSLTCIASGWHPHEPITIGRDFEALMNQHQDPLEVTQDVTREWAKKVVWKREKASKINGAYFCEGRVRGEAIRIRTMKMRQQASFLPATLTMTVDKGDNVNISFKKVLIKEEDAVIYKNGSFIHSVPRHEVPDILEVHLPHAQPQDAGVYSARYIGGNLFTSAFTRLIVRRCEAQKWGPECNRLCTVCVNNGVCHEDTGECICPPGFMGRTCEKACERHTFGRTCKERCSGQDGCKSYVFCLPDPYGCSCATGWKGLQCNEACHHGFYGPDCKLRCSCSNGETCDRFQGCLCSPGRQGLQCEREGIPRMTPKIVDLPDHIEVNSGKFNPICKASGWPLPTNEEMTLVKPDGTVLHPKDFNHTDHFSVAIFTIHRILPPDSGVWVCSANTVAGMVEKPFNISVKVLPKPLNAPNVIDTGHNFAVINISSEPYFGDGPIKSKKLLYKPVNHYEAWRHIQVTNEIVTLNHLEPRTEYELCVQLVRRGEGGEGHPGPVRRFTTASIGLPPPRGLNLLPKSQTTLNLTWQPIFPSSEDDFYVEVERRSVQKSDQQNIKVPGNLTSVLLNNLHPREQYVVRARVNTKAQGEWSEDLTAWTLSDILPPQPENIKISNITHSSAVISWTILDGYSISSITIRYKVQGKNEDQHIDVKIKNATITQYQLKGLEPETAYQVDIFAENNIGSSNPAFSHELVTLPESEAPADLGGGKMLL

[4] = target: T3, recombinant rat Tie2-FC (Rattus norvegicus, UniProt A0ABK0L6J5 19-740); assay: tryptophan fluorescence spectroscopy
T3 chain: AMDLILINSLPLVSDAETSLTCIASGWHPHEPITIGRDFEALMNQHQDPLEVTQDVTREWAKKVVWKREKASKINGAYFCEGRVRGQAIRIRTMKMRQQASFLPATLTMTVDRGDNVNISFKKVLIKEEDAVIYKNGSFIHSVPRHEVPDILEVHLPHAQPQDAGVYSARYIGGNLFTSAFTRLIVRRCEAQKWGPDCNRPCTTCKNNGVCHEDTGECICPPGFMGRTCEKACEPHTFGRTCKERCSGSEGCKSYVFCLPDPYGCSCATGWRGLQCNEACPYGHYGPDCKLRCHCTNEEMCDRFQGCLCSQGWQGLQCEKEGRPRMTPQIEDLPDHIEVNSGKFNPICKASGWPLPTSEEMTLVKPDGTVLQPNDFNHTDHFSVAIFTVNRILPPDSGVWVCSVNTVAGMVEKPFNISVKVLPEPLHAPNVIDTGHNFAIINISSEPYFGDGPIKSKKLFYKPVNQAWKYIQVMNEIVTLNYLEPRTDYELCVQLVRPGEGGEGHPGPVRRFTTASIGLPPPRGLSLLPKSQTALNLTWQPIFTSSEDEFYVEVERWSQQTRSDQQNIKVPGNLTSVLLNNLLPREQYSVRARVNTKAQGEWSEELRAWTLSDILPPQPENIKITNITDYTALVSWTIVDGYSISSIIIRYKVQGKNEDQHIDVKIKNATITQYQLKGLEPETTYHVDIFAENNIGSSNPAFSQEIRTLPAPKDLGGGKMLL

[5] = target: T4, recombinant human Tie2Fc (human, UniProt Q02763 23-745); assay: tryptophan fluorescence spectroscopy in solution, non-linear regression one site specific binding
T4 construct: Bought from R&D Systems; not shown: human IgG Fc
From the text: The specific signal was derived by subtraction of the fluorescence intensity generated by ligand alone from the receptor and ligand complex.
Ligand and receptor interaction. […] Data was compiled using SoftMax and analyzed using Prism.

Row | Binder | Kd [1] [nM] | relative magnitude of Tie2 activation in HMVECtert [2] [fold] | Kd [3] [nM] | Kd [4] [nM] | Kd [5] [nM]
1 | B1 | 35 |  |  |  | 
2 | B2 | 6.82 | ~3.3 | 0.0229 | 4.21 | 2.62
